Experimental findings from the RNAGym collection of RNA variant scans (doi:10.7554/elife.80360) are described below.

B1: Hairpin Ribozyme (parent)
chain: GUCCUCUUUCACGUGCGCGUGAAAGAGAGAAGUGAACCAGAGAAACACACGUUGUGGUAUAUUACCUGGUA

In this data set the parent is B1. The data set is described as follows: self-cleavage, relative activity (ratio to wild type); higher = more cleavage; co-transcriptional.
For GUCCUCUUUCACGUGCGCGUGAAAGAGAGAAGUGAACCAGAGAAACACACGUUGUGGUAUAUGACUUGGUA, the self-cleavage was 0.109.
For the variant GUCCUCUUUCACGUGCGCGUGAAAGAGAGAAGUGAACCAGAGAAACACACAUUGUGGUAUAUUACCUAGUA, the self-cleavage came out at 0.555.
For GUCCUCUUCCACGGGCGCGUGAAAGAGAGAAGUGAACCAGAGAAACACACGUUGUGGUAUAUUACCUGGUA the value was 0.754; for GUCCUCUUUCACGCGCGCGUAAAAGAGAGAAGUGAACCAGAGAAACACACGUUGUGGUAUAUUACCUGGUA, 0.865; for GUCCUCUUUCACGUGCGCGUGAAAGAGAAAAGUGAACCAGAGAAACACACGUUGUGGUAUAUCACCUGGUA, 0.0755.
The value for GUCCUCAUUCACGUGCGCGUGAAAGAGAGAAGUGAACCAGAGAAACACACGUUGUGGUAUAUUACCUGCUA was 0.196; that for GUCCUCUUUCACGUGCGCGUGAAAGAGAGAAGUGAACCAGAGGAACACACGUUGUUGUAUAUUACCUGGUA was 0.0228; that for GUCCUCUUUCACGUGCUCGUGAAAGAGAGAAGUGAACCAGAGAAACACACGUUGUGGUCUAUUACCUGGUA was 0.0796.
The value for GUCCUCUUUCUCGUGCGCGUGAAAGAGAGAAGUGAACCAGAGAAACACACGUUGUGGUAAAUUACCUGGUA was 0.708; that for GCCCUCUUUCACGUGCGCGUGAAAGAGAGAAGUGAACGAGAGAAACACACGUUGUGGUAUAUUACCUGGUA was 0.157.
GUCCUCUUUCACGUGCGCGUCAAAGAGAGAAGUCAACCAGAGAAACACACGUUGUGGUAUAUUACCUGGUA: the self-cleavage was 0.992.
For GUCCUCUUUCACGUGCGGGUGAUAGAGAGAAGUGAACCAGAGAAACACACGUUGUGGUAUAUUACCUGGUA the value was 0.752.
As for GUCCUCUUUCACGUGCGCGUGAAAGAGAUAAGUGAACCAGAGAAACACACGUCGUGGUAUAUUACCUGGUA, the self-cleavage worked out at 0.197.
Consider GUCCUCUUUCACGUGCGCGUUAAAGAGAGAAGUGAACCAGAGAAACACACGUUGUGGUAUAUCACCUGGUA, for which the self-cleavage was determined as 0.122.
For GUCCUCUUUCACGUCCGUGUGAAAGAGAGAAGUGAACCAGAGAAACACACGUUGUGGUAUAUUACCUGGUA the value was 0.922; for GUCCUCUUUCACGUGCGCGUGAAAGAGAGAAUUGAACCAGAGAAACACACGUUGUGGUAUAUUACCUGGGA, 0.108; for GUCCUCUUUCACGUGCGCGUGAAAGAGAGAAGUGAACCAGUGAAACACACGUUGUGGUAUAUUACCUGCUA, 0.55.
Turning to GUCCUCUUUCACCUGCGCGUGAAAGAGAGAAGUGAACCAGAGAAACACACGUUGUGGUAUAUGACCUGGUA, the self-cleavage was 0.164.
Regarding GUCCUCUUUCACGUGCGCGUGAAAGAGAGAAGUGAACCAGAGAAUCAUACGUUGUGGUAUAUUACCUGGUA, the self-cleavage was found to be 0.135.
For GUCCUCUUUCACGUGCGGGUGAAAGAGAGAAGUCAACCAGAGAAACACACGUUGUGGUAUAUUACCUGGUA the value was 1.17.
For the variant GUCCCCUUUCACGUGCGCGUGAAAGAGAGAAGUGAACCAGAGAAAUACACGUUGUGGUAUAUUACCUGGUA, the self-cleavage was 0.023.
For GUCCUCUUUCACGUGCGCGUGAAAGAGAGUACUGAACCAGAGAAACACACGUUGUGGUAUAUUACCUGGUA the value was 0.132; for GUCCUCUUUCACGUGCGCGUGAAAGAGAGAAGUGAACCAGAGAAACACAGGUUGUGGUUUAUUACCUGGUA, 0.112; for GUCCUCUUUAACGUGCGCGUGAAAGAGAGAAGUGAACCAGAGAAAUACACGUUGUGGUAUAUUACCUGGUA, 0.2.
The value for GUCCUCUUUCACGUGCGCGUGAAAGAGAGAAGUGGACCAGAGAAACACACGUUGUGGUAUAUAACCUGGUA was 0.232.
The value for GUCCUCUUUCGCGUGCGCGUGAAAGAGAGAAGUGACCCAGAGAAACACACGUUGUGGUAUAUUACCUGGUA was 0.508; that for GUCCUCUUUCACGUGCGCGUGAAAGAGAUAAGUGAACCAGAGAAACACACGUUGUGGUAUAUUGCCUGGUA was 0.0899; that for GUCCUCUUUCACGUGCGCGCGAAAGAGAGAAGUGAACCAGAGAAACACACGUUGUUGUAUAUUACCUGGUA was 0.215.
As for GUCCUCUUUCACGUGCUCGUGAAAGAGAGAAGUGAACCAGAGAAACACACGUUGUGGUAUAUUACCUUGUA, the self-cleavage amounted to 0.207.
On to GUCCUCUUUCACGUGCGCGUGAAAGAGAGAAGUGAACCAGAUAAAUACACGUUGUGGUAUAUUACCUGGUA, for which the self-cleavage stood at 0.205.
The value for UUCCUCUUUCACGUGCGCGUGAAAGAGAGACGUGAACCAGAGAAACACACGUUGUGGUAUAUUACCUGGUA was 0.0695; that for GUCCUCUUUCACGUGCGUGUGAAAGAGAAAAGUGAACCAGAGAAACACACGUUGUGGUAUAUUACCUGGUA was 0.194.
The value for GUCCUCUUUCACGUGCGCGUGAAAGAGAGAAGUGAACCAGAGAACCACACGCUGUGGUAUAUUACCUGGUA was 0.176; that for GUCCUCUUUCACGUGCGCGUGAAAGAUAUAAGUGAACCAGAGAAACACACGUUGUGGUAUAUUACCUGGUA was 0.119; that for GUCCUCUUUCACGUGCGCGUGAAAGAGAGAAGUGAACCAGAGAAACCCACGUUGUUGUAUAUUACCUGGUA was 0.149.
With GUCCUCUUUCACGGGCGCGUGAAAGAGAGAAGUGAACCAGAGAAACACACGUAGUGGUAUAUUACCUGGUA, the self-cleavage worked out at 0.835.
Consider GUCCUCUUUCACGUUCGCGUGAAAGAGAGAAGUGAACCAGAGAAACAAACGUUGUGGUAUAUUACCUGGUA, for which the self-cleavage was 0.226.
As to GUCCUCUCUCACGUGCGCGUGAAAGAGAGAAGUGAACCAGAGAAACAUACGUUGUGGUAUAUUACCUGGUA, the self-cleavage came to 0.272.
